Laboratory results taken from article PMC5895659, “Mechanistic and Structural Insights Into the Unique TetR-Dependent Regulation of a Drug Efflux Pump in Mycobacterium abscessus” (Frontiers in Microbiology, 2018).

Legend:
[1] = target: T1, MAB_4384 (TetR regulator) (Mycobacterium abscessus subsp. …, UniProt B1MJU8 1-221); assay: EMSA; comparable to Probe 1; EMSA: 280 nM fluorescein probe, 1X TAE, 1 h, room temperature, 6% native PAGE in 1X TAE; SEC: 50 mM Tris-HCl pH 8, 200 mM NaCl, 5 mM beta-mercaptoethanol, 4 C; details: protein: recombinant; tags: Trx-His6 tag removed by TEV; residual Gly at N-terminus; chain copies: 4; label: 5' fluorescein; blunt
[2] = target: MAB_4384 (TetR regulator) (Mycobacterium abscessus subsp. …, UniProt B1MJU8 1-221); assay: competition; excess non-related labeled probe; shift of Probe 1 maintained; EMSA: 280 nM fluorescein probe, 1X TAE, 1 h, room temperature, 6% native PAGE in 1X TAE; SEC: 50 mM Tris-HCl pH 8, 200 mM NaCl, 5 mM beta-mercaptoethanol, 4 C; details: protein: recombinant; tags: Trx-His6 tag removed by TEV; residual Gly at N-terminus; chain copies: 4; label: 5' fluorescein; blunt
[3] = target: the molecule itself; assay: SEC; ENrich SEC 650 column, 50 mM Tris-HCl pH 8, 200 mM NaCl, 5 mM beta-mercaptoethanol, 0.4 mL/min, 4 °C; MAB_4384 at 3.9 mg/mL; apparent mass from a calibration curve (42.6 kDa against 24.7 kDa theoretical)
[4] = target: T2, MAB_4384 (D14N/F57L) (Mycobacterium abscessus subsp. …, UniProt B1MJU8 1-221, D14N;F57L); assay: EMSA; fully abrogated; EMSA: 280 nM fluorescein probe, 1X TAE, 1 h, room temperature, 6% native PAGE in 1X TAE; SEC: 50 mM Tris-HCl pH 8, 200 mM NaCl, 5 mM beta-mercaptoethanol, 4 C; details: protein: recombinant; tags: Trx-His6 tag removed by TEV; residual Gly at N-terminus; chain copies: 2; label: 5' fluorescein; blunt
T2 sequence: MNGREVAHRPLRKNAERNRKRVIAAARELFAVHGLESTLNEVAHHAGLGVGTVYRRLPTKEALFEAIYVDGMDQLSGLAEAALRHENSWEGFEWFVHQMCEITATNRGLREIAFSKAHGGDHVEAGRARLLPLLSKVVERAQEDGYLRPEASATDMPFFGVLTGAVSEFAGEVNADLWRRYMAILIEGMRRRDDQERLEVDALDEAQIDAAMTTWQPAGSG

[5] = target: T1, MAB_4384 (TetR regulator); assay: EMSA; 280 nM probe; EMSA: 280 nM fluorescein probe, 1X TAE, 1 h, room temperature, 6% native PAGE in 1X TAE; SEC: 50 mM Tris-HCl pH 8, 200 mM NaCl, 5 mM beta-mercaptoethanol, 4 C; details: protein: recombinant; tags: Trx-His6 tag removed by TEV; residual Gly at N-terminus; chain copies: 4; label: 5' fluorescein; blunt
[6] = target: T1, MAB_4384 (TetR regulator); assay: competition; cold probe vs 280 nM labeled Probe 1; dose-dependent decrease; EMSA: 280 nM fluorescein probe, 1X TAE, 1 h, room temperature, 6% native PAGE in 1X TAE; SEC: 50 mM Tris-HCl pH 8, 200 mM NaCl, 5 mM beta-mercaptoethanol, 4 C; details: protein: recombinant; tags: Trx-His6 tag removed by TEV; residual Gly at N-terminus; chain copies: 4; blunt

B1: Probe 3 (flanks randomly changed) (dsDNA)
DNA 1: TCTGGATAAGCAAGTGGATTGACTCTATCCACTTCCGAAACCGAC
DNA 2: GTCGGTTTCGGAAGTGGATAGAGTCAATCCACTTGCTTATCCAGA
[1]
  binding result: binds

B2: Non-specific probe (dsDNA)
DNA 1: ATGGAACTTGAAGGACTGACCGCGTTG
DNA 2: CAACGCGGTCAGTCCTTCAAGTTCCAT
[2]
  binding result: no binding

B3: MAB_4384 TetR regulator (natural protein)
chain: MNGREVAHRPLRKDAERNRKRVIAAARELFAVHGLESTLNEVAHHAGLGVGTVYRRFPTKEALFEAIYVDGMDQLSGLAEAALRHENSWEGFEWFVHQMCEITATNRGLREIAFSKAHGGDHVEAGRARLLPLLSKVVERAQEDGYLRPEASATDMPFFGVLTGAVSEFAGEVNADLWRRYMAILIEGMRRRDDQERLEVDALDEAQIDAAMTTWQPAGSG
notes: MAB_4384, TetR family transcriptional repressor of Mycobacterium abscessus subsp. abscessus CIP104536T; amplified from genomic DNA with the MAB_4384_full primers; theoretical mass 24.7 kDa; the account of the structure (chain A modelled Asp14 to Thr213, first thirteen and last eight residues not visible) implies residues 1-221; also called wild-type MAB_4384; source: E. coli BL21 Rosetta 2 (DE3), …
[3]
  stoichiometry N: 2

B4: Probe 1 (IRS5/L5 operator) (dsDNA)
DNA 1: CACTTCGCCATAAGTGGATTGACTCTATCCACTTTTACCCATAGA
DNA 2: TCTATGGGTAAAAGTGGATAGAGTCAATCCACTTATGGCGAAGTG
[4]
  binding result: no binding
[5]
  binding result: binds

B5: Probe 1 unlabeled (dsDNA)
DNA 1: CACTTCGCCATAAGTGGATTGACTCTATCCACTTTTACCCATAGA
DNA 2: TCTATGGGTAAAAGTGGATAGAGTCAATCCACTTATGGCGAAGTG
[6]
  binding result: binds
